Experimental findings from patent publication US12697350B2, “Methods and compositions for treating a premature termination codon-mediated disorder” (Tevard Biosciences, Inc., priority 2019, dated 2026) are described below.

The subject of series [1] is EGFP-R96X-TGA reporter. The experiment in a line: 100 nt 5′ leader sequence library with ArgTCA suppressor tRNA #115, EGFP-R96X-TGA reporter, Flp-In-293 cells (FIGS. 28, 29, 32). The series is classed as cell-based, human. The source says: FIG. 27 is a schematic representation of the constructs used to test the impact of a 5′ leader sequence on the read-through of a premature termination codon (PTC) by a suppressor tRNA. Constructs contain (i) a 100 bp 5′ leader sequence derived from genomic DNA located upstream of tRNA genes that are highly expressed in HEK293 cells, (ii) a single copy of either the ArgTCA suppressor tRNA #115 (SEQ ID NO: 18) or the GlnTTA suppressor tRNA #163 (SEQ ID NO: 45), and (iii) an RNA polymerase III termination signal (“Term”).
FIG. 28 is a graph depicting the readthrough activity of the indicated ArgTCA suppressor tRNA expression constructs as measured by flow cytometry in Flp-In-293 cells at ~24 hours post transfection. […]
FIG. 29 is a graph depicting the readthrough activity of the indicated ArgTCA suppressor tRNA expression constructs as measured by flow cytometry in Flp-In-293 cells at ~24 hours post transfection. […]
The leader sequences in combination with the ArgTCA suppressor tRNA #115 (SEQ ID NO: 18) or the GlnTTA suppressor tRNA #163 (SEQ ID NO: 45) were tested for PTC readthrough activity by flow cytometry in cell lines co-transfected with an EGFP-R96X-TGA reporter (SEQ ID NO: 31) for ArgTCA constructs or an EGFP-Q69X-TAA reporter (SEQ ID NO: 175) for GlnTTA constructs.

For series [2], the system named is EGFP-R96X-TGA reporter. The experiment in a line: Flanking sequence length (TABLE 11 vectors Flank300/20/10/0), EGFP-R96X-TGA reporter, Neuro-2a cells (FIGS. 26A-B). As to conditions: single copy, Flank0 vector (random sequence 5′ to tRNA), ~24 hours post transfection. Format: cell-based, mouse. As for the experimental part: “GFP-PTC” indicates cells transfected with the EGFP-R96X-TGA reporter alone (SEQ ID NO: 31), “GFP” indicates cells transfected with a version of the EGFP reporter that lacks a PTC. Readthrough activity was measured by flow cytometry at ~24 hours post transfection. Data are presented as histograms displaying the frequency distribution of the data versus fluorescence intensity for cells expressing EGFP above background.
Expression vectors were generated that encoded an EGFP-R96X-TGA reporter (SEQ ID NO: 31, as described in Example 1) and a single copy of the ArgTCA suppressor tRNA #115 (tRNA-Arg-TCT-2-1-TCA-SUP_no intron, SEQ ID NO: 18, as described in Example 1). The expression vectors included sequences immediately 5′ and 3′ to the tRNA coding sequence that were in each instance derived from the genomic DNA that is 5′ and 3′ to the mouse tRNA-Arg-TCG-1-1 gene but were of varying length.
The expression vectors in TABLE 11 were tested for PTC readthrough activity by flow cytometry in Neuro-2a cells. Transfections were performed using the Lipofectamine 3000 Transfection Reagent according to the manufacturer's protocol.

B1: tRNA-Arg-TCT-2-1-TCA-SUP_no intron (nucleic acid)
chain: GGCTCCGTGGCGCAATGGATAGCGCATTGGACTTCAAATTCAAAGGTTCCGGGTTCGAGTCCCGGCGGAGTCG
modifications: chemistry not fully specified
As to B1, the “readthrough activity when combined with the identified leader sequences” value in series [1] is recorded as “showed high readthrough activity”. Further, the “suppressor tRNA activity with random 5′ leader sequence” value in series [2] was “exhibits activity even with a random 5′ leader sequence”.
